{"source": "paper PMC7992120", "about": "(2018)", "binders": {"B1": {"name": "B1 bradykinin receptor (B1R) (protein)", "chain": "MASSWPPLELQSSNQSQLFPQNATACDNAPEAWDLLHRVLPTFIISICFFGLLGNLFVLLVFLLPRRQLNVAEIYLANLAASDLVFVLGLPFWAENIWNQFNWPFGALLCRVINGVIKANLFISIFLVVAISQDRYRVLVHPMASRRQQRRRQARVTCVLIWVVGGLLSIPTFLLRSIQAVPDLNITACILLLPHEAWHFARIVELNILGFLLPLAAIVFFNYHILASLRTREEVSRTRCGGRKDSKTTALILTLVVAFLVCWAPYHFFAFLEFLFQVQAVRGCFWEDFIDLGLQLANFFAFTNSSLNPVIYVFVGRLFRTKVWELYKQCTPKSLAPISSSHRKEIFQLFWRN"}}, "target": "linearized DAKD (N-methyl F6) (Homo sapiens, backbone amide N-methylation at F6 of peptide)", "test": "radioligand competition binding"}
{"binder": "B1", "values": [{"measurement": "Ki", "result": 2030, "unit": "nM"}]}
